From the supplement of paper PMC9732359
± gives the uncertainty stated by the source.

Assay: protein stability index of a GFP-peptide fusion (yeast GPS) (PSI 1-4); higher = more stable; sorted into four equal gates, so the index is relative within each strain
Method in brief: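 Each library plasmid carries Cherry plus GFP with a tiled 17-residue yeast protein peptide fused downstream, and the pooled library was carried in yeast. Mid-log cultures in leucine-free medium were sorted into four equal gates by GFP/Cherry ratio. Reads from Illumina sequencing of PCR-amplified plasmids from each gate were assigned to strains by barcodes. Per peptide, the protein stability index was computed as the summed products of gate read frequency and gate number.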

Row | Sequence | protein stability index (doa10∆) | protein stability index (pdr5∆) | protein stability index (san1∆) | protein stability index (ubr1∆)
1 | DSMKYTISSLFVQLCEM [RPC82] | 1.86 ± 0.044 | 2.26 ± 0.042 | 2.15 ± 0.062 | 2.17 ± 0.043
2 | DKKKGQNVTSETHSKKR [ITC1] | 3.1 ± 0.087 | 3.12 ± 0.076 | 3.16 ± 0.061 | 3.04 ± 0.039
3 | NFLQESYEVEHVIQIPL [TAF14] | 2.49 ± 0.094 | 2.94 ± 0.092 | 2.55 ± 0.067 | 2.81 ± 0.082
4 | RYKFPGQQKIILSKKWG [RPL10] | 2.69 ± 0.22 | – | – | 2.29 ± 0.21
5 | LKGRVVEVCLADLQGSE [RPS1A] | 2.65 ± 0.062 | 3.08 ± 0.071 | 2.51 ± 0.076 | 2.49 ± 0.055
6 | PLPHRVQKSTKTFSYKR [RPL20A] | 2.39 ± 0.058 | 2.93 ± 0.051 | 2.63 ± 0.057 | 2.38 ± 0.043
7 | EKGLNELSIRDVTHTLG [SMC4] | 1.34 ± 0.14 | 2.42 ± 0.092 | 2.48 ± 0.17 | 1.57 ± 0.1
8 | FLTVSKLWAEIIVKILY [GRR1] | 1.55 ± 0.046 | 1.97 ± 0.058 | 1.53 ± 0.087 | 1.37 ± 0.048
9 | KVLQLLRLTRINSGTFV [RPL7A] | 1.8 ± 0.097 | 1.62 ± 0.093 | 1.2 ± 0.17 | 1.07 ± 0.065
10 | YTKETYQSRGIDAMKAV [RPN6] | 2.59 ± 0.069 | 2.86 ± 0.072 | 2.83 ± 0.064 | 2.39 ± 0.047
11 | TGKITKMFQDIRLSKIL [CDC53] | 2.73 ± 0.07 | 3.03 ± 0.093 | 2.66 ± 0.071 | 2.86 ± 0.069
12 | DVDQHGNDNNSDSNANA [SWI3] | 3.01 ± 0.045 | 3.25 ± 0.046 | 3.245 ± 0.028 | 3.249 ± 0.028
13 | QNFAEFMTKLLEVANDL [IRR1] | 2.06 ± 0.11 | 2.29 ± 0.097 | 3.13 ± 0.085 | 2.65 ± 0.14
14 | GENNINFQKASATLDGC [BRN1] | 2.94 ± 0.23 | 3.3 ± 0.21 | 3.12 ± 0.25 | –
15 | SLQYIERQQDELENFLD [YJL041W/NSP1] | 3.1 ± 0.1 | 3.04 ± 0.14 | 3.43 ± 0.096 | 3.12 ± 0.054
16 | YVKEKLEAVNSMIEKGG [RPN7] | 2.93 ± 0.14 | 2.98 ± 0.1 | 2.77 ± 0.08 | 2.83 ± 0.06
17 | MSIVFGDKFSEDFRIQF [UBP6] | 3.28 ± 0.13 | 2.71 ± 0.1 | 2.2 ± 0.092 | 2.37 ± 0.063
18 | GRIPLHWSVSFQAHEIT [NAS6] | 2.87 ± 0.057 | 2.84 ± 0.056 | 2.48 ± 0.073 | 2.69 ± 0.037
19 | FLKERLMEASDAFRVHI [RPB2] | 1.66 ± 0.073 | 1.7 ± 0.12 | 2 ± 0.15 | 1.74 ± 0.1
20 | IKLVKQNDELKFQGVLE [RPC34] | 3.25 ± 0.13 | 3.53 ± 0.12 | 3.37 ± 0.051 | 2.58 ± 0.095

Row | Sequence | protein stability index (doa10∆) | protein stability index (pdr5∆) | protein stability index (san1∆) | protein stability index (ubr1∆)
21 | QQPNPLQDLISVYGLDD [ROX3] | 1.95 ± 0.073 | 1.76 ± 0.061 | 2.02 ± 0.15 | 1.97 ± 0.084
22 | PDILATDLIREKTMMTF [YCS4] | 2.28 ± 0.078 | 3.08 ± 0.081 | 2.86 ± 0.082 | 2.62 ± 0.056
23 | KIPLFTFAKSKNYSRPS [SIR4] | 2.39 ± 0.092 | 2.12 ± 0.081 | 1.74 ± 0.1 | 2.42 ± 0.064
24 | ISKHSKQAIYTRAAASE [RPS25B] | 2.74 ± 0.055 | 2.73 ± 0.048 | 2.6 ± 0.047 | 2.86 ± 0.041
25 | IHFADVAHITTKSPAYP [RGR1] | 2.42 ± 0.054 | 2.61 ± 0.055 | 2.55 ± 0.045 | 2.56 ± 0.033
26 | EKNGGLGWDLDAIIPFA [FAS2] | 3.14 ± 0.098 | 3.22 ± 0.13 | 3.28 ± 0.066 | 3.08 ± 0.068
27 | PLSNEVFEISENNSDSN [SWI1] | 3 ± 0.063 | 3.04 ± 0.068 | 2.84 ± 0.084 | 2.98 ± 0.058
28 | LAKYRDAGKIDKHLYHV [RPL19A] | 3.3 ± 0.18 | 3.39 ± 0.15 | 1.27 ± 0.28 | 3.61 ± 0.095
29 | EIVWTSSLIKAGLDKGI [RPO31] | 1.92 ± 0.047 | 1.96 ± 0.061 | 2.54 ± 0.05 | 1.57 ± 0.057
30 | KEDTVSWFKQKYDADVL [RPL11A] | 1.5 ± 0.069 | 1.43 ± 0.055 | 1.57 ± 0.1 | 1.53 ± 0.06
31 | KDNARIYQVPEKDLEHW [POP1] | – | – | 2.26 ± 0.23 | –
32 | EYSDNFPVSLSQPSKKS [SIR4] | 3.08 ± 0.045 | 3.05 ± 0.046 | 2.98 ± 0.04 | 3.1 ± 0.031
33 | KHLEDNTLLVTGPFKVN [RPL6B] | 3.03 ± 0.18 | 2.53 ± 0.16 | 3.08 ± 0.093 | 1.78 ± 0.072
34 | SHILNSHSLALNEITNS [DSN1] | 2.14 ± 0.033 | 2.41 ± 0.035 | 2.28 ± 0.037 | 2.36 ± 0.03
35 | KHGTYDKLDDDGLIAPG [RPB2] | 3.02 ± 0.21 | 2.92 ± 0.24 | – | –
36 | LIKDNSAMVTTAAAADI [SRB2] | – | 1.78 ± 0.29 | – | –
37 | VSTETFEQPSQREEAKK [RPL27A] | 2.9 ± 0.061 | 2.73 ± 0.07 | 2.73 ± 0.054 | 3.1 ± 0.067
38 | FERFPSPSTSANVPSTA [RPN4] | 1.81 ± 0.046 | 1.92 ± 0.04 | 1.56 ± 0.077 | 2.36 ± 0.039
39 | ENPTPEKGNAKMIDFAT [SIR3] | 3.1 ± 0.11 | 2.99 ± 0.092 | 3.32 ± 0.072 | 3.03 ± 0.068
40 | KDNAIYNGFIDIFSNLS [YCS4] | 2.85 ± 0.076 | 2.72 ± 0.081 | 2.87 ± 0.07 | 2.77 ± 0.047
